Measured values taken from PMC4387078.

Experiments:
purified protein [1] = substrate: O=C1O[C@H]([C@@H](O)CO)C(O)=C1O; assay: purified protein; settings: 0.1 M sodium phosphate
[2] = substrate: NCCc1ccc(O)c(O)c1; assay: spectrophotometric laccase assay, product formation; type: biochemical, Drosophila melanogaster; settings: pH 7.0
[3] = substrate: Oc1ccc(O)cc1; assay: as above; type: biochemical, Drosophila melanogaster; settings: pH 7.0
[4] = substrate: NCCc1ccc(O)c(O)c1; assay: as above; type: biochemical, Trametes versicolor; settings: pH for this enzyme not stated
[5] = substrate: Oc1ccc(O)cc1; assay: as above; type: biochemical, Trametes versicolor; settings: pH for this enzyme not stated
[6] = substrate: NCCc1ccc(O)c(O)c1; assay: as above; type: biochemical, Anopheles gambiae; settings: pH 7.0
[7] = substrate: Oc1ccc(O)cc1; assay: as above; type: biochemical, Anopheles gambiae; settings: pH 7.0
purified protein [8] = substrate: O=C1O[C@H]([C@@H](O)CO)C(O)=C1O; assay: purified protein; type: biochemical, Anopheles gambiae; settings: 0.1 M sodium phosphate, pH 7.0, allosteric sigmoidal fit
[9] = pH 7.0, allosteric sigmoidal fit

B1: DmMCO1T (Drosophila melanogaster) (protein)
chain: DIWTAEWYRNHPCNRDCQVGAEPMTCRYKFVVEWYQTFSKACYDCPRNLTDCSRPHCVMGDGLERSITVVNRMMPGPAIEVCEGDEIVVDVKNHLLGESTSIHWHGLHQKKTPYMDGVPHITQCPITPHATFRYSFPADLSGTHFWHSHTGMQRGDGVFGALIIRKPKTAEPHGGLYDFDLSEHVMIVQDWIHDTGASIFSYHHHSRGDNKPHNLLVNGKGRYYNRIWAEAKQAHRRAEERTTQPVEPLPKSQVDFVQTLPRQARLAKTNTTKLFPVNSRQKRGNLNEIPLELVPHQIYTVRRGFRYRFRIINAEYLNCPIVVSIDGHNLTAINSDGFDIEAMDVGSIVTYSGERFDFVLNANLEVGNYWIRLKGLMDCSEVFTSAFQVAILRYEGAPDEEPTAELSYGHKAEGIELNVMNRGPGYPDTKTVAEMRALPIYDHVSGIDHDTLKPEADYKFFIYYDFYTKNNPDFHDKDLYAMDMEMTQQNRLYTPQLNHITLNFPSLALLPSRSQLKDSDFCNETSLMDQGIDCRQEFCKCHHVLQVPLGAVVEMIIVDEGFQYYANHPFHLHGNAFRVMGLERLGENVTVEMIKQLDQFNLLKRNLDNPPVKDTVTIPDGGYTIIRFEASNPGYWLFHCHIEFHAEIGMALVFKVGNDDQMVPVPENFPTCGDYNPDLRSDGGTTEDSGSSKPITATPPNTGGGGSG
B1 gave a K0.5 (purified protein [1]; [9]) of 0.29 ± 0.05 mM, a kcat (purified protein [1]; [9]) of 42.8 ± 5.25 s⁻¹ and a kcat/Km (purified protein [1]; [9]) of 147000 M⁻¹ s⁻¹. The Km [2] was 7.0 ± 0.93 mM, the kcat [2] was 0.317 ± 0.0183 s⁻¹ and the kcat/Km [2] was 50 M⁻¹ s⁻¹. The Km [3] was 14.4 ± 0.91 mM, the kcat [3] was 1.03 ± 0.035 s⁻¹ and the kcat/Km [3] was 66.7 M⁻¹ s⁻¹.

B2: AgMCO3 (Anopheles gambiae) (protein)
chain: QSWLNTLLEQSNGTLDVSTFPGEQCLRECDNTQPRICHFSWTMEHYHVMGPACRDCAKGNHTDCYHPACITADGVERGVMSLNRKIPGPTISVCRHDLIVVDITNAMAGTSAAIHWHGLHQRATPYMDGVPFITQCPIGFGNTFRYAFLATEPGTQFYHSHSGHHKVNGHYGALIVREPKRVDPNGDLYHYDTPAHVILGSDWMHIDGEMFMPGLPSAGGIMPINLLINGKGTYHDPKKNETTQTPLEVYTVRRGARFRFRFINAASHVCPLQLQIEDHMMEVIASDSFHLQPRKVDTLVSTSGERYDFVLEANGVKDTYWVRLRSLGPCADLQLEQFAVLRYTTGPFINDAFPTGAPPTYEEPFRNVATANHPNATCGRPEFGDYCITDFQAYDTDEDVINGVPDHQLTFGFYNYPVSFESMFESNRYEHYMNIYGSVMMQGAINNISLAYPPFSLLTQPEKIRDDTFCDEDNRPDSCSDRQLCTCTHRVKINLGDIVELYILDLTPSVNDLNHPFHLHGYQMFVMEMSQDRRVPITLEIAQNIARQRLLSRNTVALPPRKDTVSIPSRGYARVRFRADNPGFWLMHCHYEWHTAVGMALVLQVGETSEMVKAPADFPKCDSYTPAVGHLLQGSL
B2 showed a K0.5 (purified protein [1]; pH 7.0, Michaelis-Menten fit) of 0.64 ± 0.26 mM, a kcat (purified protein [1]; pH 7.0, Michaelis-Menten fit) of 2.47 s⁻¹ and a kcat/Km (purified protein [1]; pH 7.0, Michaelis-Menten fit) of 3880 M⁻¹ s⁻¹.

B3: TvLac-α (Trametes versicolor) (protein)
chain: AIGPVASLVVANAPVSPDGFLRDAIVVNGVVPSPLITGKKGDRFQLNVDDTLTNHSMLKSTSIHWHGFFQAGTNWADGPAFVNQCPIASGHSFLYDFHVPDQAGTFWYHSHLSTQYCDGLRGPFVVYDPKDPHASRYDVDNESTVITLTDWYHTAARLGPRFPLGADATLINGLGRSASTPTAALAVINVQHGKRYRFRLVSISCDPNYTFSIDGHNLTVIEVDGINSQPLLVDSIQIFAAQRYSFVLNANQTVGNYWVRANPNFGTVGFAGGINSAILRYQGAPVAEPTTTQTTSVIPLIETNLHPLARMPVPGSPTPGGVDKALNLAFNFNGTNFFINNATFTPPTVPVLLQILSGAQTAQDLLPAGSVYPLPAHSTIEITLPATALAPGAPHPFHLHGHAFAVVRSAGSTTYNYNDPIFRDVVSTGTPAAGDNVTIRFQTDNPGPWFLHCHIDFHLDAGFAIVFAEDVADVKAANPVPKAWSDLCPIYDGLSEANQ
B3 gave a Km [4] of 0.055 ± 0.005 mM, a kcat [4] of 11.5 ± 0.18 s⁻¹ and a kcat/Km [4] of 210000 M⁻¹ s⁻¹. The Km [5] was 0.038 ± 0.006 mM, the kcat [5] was 32.7 ± 1.22 s⁻¹ and the kcat/Km [5] was 861000 M⁻¹ s⁻¹.

B4: AgMCO1T (Anopheles gambiae) (protein)
chain: VEPEEGVDFYEELSYDNHPCKRACTLGRKPETCYYRFRLEWYRTLSKACYNCPYNATDCERPHCITGDGVRRNVAVINRMMPGPAIEVCENDIIVVDVENHLMGESTTIHWHGLHQRRTPYMDGVPHVSQCPISPGTTFRYTFRADNPGTHFWHSHTGMQRGDGAFGALIIRKDNDIQELLYDHDLSEHVITVQDWGHEQGVSLFASHHHSTGDNKPPNLLINGRGKYFQRFAKTTPLTTTTTSTEEPALEPETIMAVEPESTTLMEELPTTTVPITDAITPDDTELLQASSNTNLKTVLRAEEVRHRTKRQSRTVNFNAIVVPESKHIPLKVFHVDKGRRYRFRLINAEFLNCPVELSIENHNLTVIASDGFGIQPLEDLGSFVSYAGERFDFIVKANQPIGNYLIRFRGLMDCDERFTSAYQFAVLRYRGAPTDTEYESWPPYDYEAPGVQLNSLNRGPGAENVITIAETSALDQEDLLLLRNETDYKFYVYYDFYGKDNPHFHVPSLYGFQQVVNNTNRLYTPQLNHISMRMPPVPFLPGKDVLDESQFCNETSVRDRNCRQEFCECSHVLQIPLHATVEMVMIDEGFTFDANHPFHLHGHAFRVVGMDRVSRNTTIEDIRRMDEEGRLPRRLKRAPIKDTVTIPDGGYTIIRFIANNPGYWLFHCHIEFHAEIGMSLVLKVGDSSEMLPAPANFPTCYDFKPKLGQLGSGGA
B4 gave a Km [6] of 35.2 ± 3.59 mM, a kcat [6] of 0.258 ± 0.0183 s⁻¹ and a kcat/Km [6] of 6.67 M⁻¹ s⁻¹. The Km [7] was 31.9 ± 3.75 mM, the kcat [7] was 1.58 ± 0.13 s⁻¹ and the kcat/Km [7] was 50 M⁻¹ s⁻¹. The K0.5 (purified protein [8]) was 0.12 ± 0.02 mM, the kcat (purified protein [8]) was 15.3 ± 1.4 s⁻¹ and the kcat/Km (purified protein [8]) was 126000 M⁻¹ s⁻¹.
